# Data: the DeepSol protein solubility set
# Test: soluble on expression in E. coli; label from the status in PepcDB or PDB records
row,Sequence,soluble on expression in E. coli
1,MFPQADEPERDTLPGQEEDPLPTGQEQPSITPIAGTEAQYIDIAEWYDSDSILYITDEGENSLVYIYNLLTGEKKSLFSSDDAVIKVTANSTHSQFAIQTVTQAGDAPVSIIDSQGELLMKLEDFGEDFSIFWSPYEEDKLIAVAYLPDWEQDLYLIDTSDKQVEMLDLDQSFVQWLDERTIVYLDWNGDSEGYYAPLYTFDLETEEVVLLHEEAIATLGFGDHVTLIIERPEQGAEVTTYQFWNGSEQLAEWSVPILRTYSEQWWIPFYDFDLNKRLFYAYKPNRTGDYFEYDGGFSFIAFDVDHGEETVLFESDEHVPFRLSPTGQRALFGPRLETVMDLPTGESNSLIE,not soluble
2,MFPWIVIHEGNLFDTQKPLKCAILSEFQSMVSESDGPSSSKTGGISSSMTHPLDMLGDTYGIFDLMMDTSSIKPILTEILCSSDHWRRNGRHPVVLSTFPFSAIAREINASCSEALFYEIANVERMIVGDSRHAMNLGDQLAFEIFSTVMMISDLDIFLLGASNLYLSDRRGFNRDLTDVFWSSFISSLLMRNDRNRLFILIKGGLKYVSDLLSEYIVARISMELSDQTIRIRLIYL,soluble
3,MFQPEKIDPEEATAAIAEVAYIVTVSDYIGNVIRSLYPQASPKLRTIYSVVDSERFLPGNHPKMQKIRNDIRRAHGLENKTVILFAGRLSRNKGVDKLILALPELAKKFKNLALVIVGSNWFSENDITDYVAYVRALAKRMPVPVVTTGFVPPNEIQNWFAAADLFVCTSQWQEPLARVHYEAMAAGLPIVTTARGGNPEVIFANENGLIVENPEDPSDFANKIAQILSDQSLMRRMGEKGRQLAISIYHWERVASELLEVWEQAEKTEQAVVSEEQAAGMTIEPLKEDATEQLNGPTPKADAKEKVHSKKNAAASSNKTKKGKAKKERAISMEDHQQTAKQKEAAAERTELAKSAPAPKQPQTGRHIKPFTIASGNQQTLDASPKTHLNRKLAQAKHDTKHFTIASSH,not soluble
4,MFQRKTLQRRNLKGLNLNLHPDVGNNGQLQEKTETHQGQSRIEGHVMSNINAIQNNSNLFLRRGIKKKLTLDAFGDDQAISKPNTVVIQQPQNEPVLVLSSLSQSPCVSSSSSLSTPCIIDAYSNNFGLSPSSTNSTPSTIQGLSNIATPVENEHSISLPPLEESLSPAAADLKDTLSGTSNGNYIQLQDLVQLGKIGAGNSGTVVKALHVPDSKIVAKKTIPVEQNNSTIINQLVRELSIVKNVKPHENIITFYGAYYNQHINNEIIILMEYSDCGSLDKILSVYKRFVQRGTVSSKKTWFNELTISKIAYGVLNGLDHLYRQYKIIHRDIKPSNVLINSKGQIKLCDFGVSKKLINSIADTFVGTSTYMSPERIQGNVYSIKGDVWSLGLMIIELVTGEFPLGGHNDTPDGILDLLQRIVNEPSPRLPKDRIYSKEMTDFVNRCCIKNERERSSIHELLHHDLIMKYVSPSKDDKFRHWCRKIKSKIKEDKRIKREALDRAKLEKKQSERSTH,not soluble
5,MFQWLYDVLWLLAPIWIRRYLDKRSGSAPAYRAHRDERFGKPHPNPVTGAVWIHAVSVGETRAAQPLIRELRRRFPDAPLLMTQMTPTGRETAQVLFPDAQCRYLPYDKKTWVRQFLREHRPMFGILMETEIWPNLMKECRRAGVPLFLANARLSEKSLNGYLKVRRLIRPAAASLTGCLAQTEADAARLAKLGAASVQVCGNTKYDLMPSEDMKTLAGQFEKRIGGRPVAVCGSTRVYRGEDEAEKLLAAWQQYRGDALLAVVPRHPEHFQTTFETAKRFGFKVQRRSDGLPVEPDTQVWVGDSMGELYAYYLCADVAFVGGSLVGSGCQNIIEPLSCGVTTIFGFSTYNFSEACRHALASGAAVQVESADAWREAVEKTLSGEGGGMQMQARVDGFIAQHRGAGARIAEAVREAVCGHRGRLEHHHHHH,not soluble
6,MFRQLSELYISTLKEAKERSPPNFDDTPRGLLLALIKDRPTIWNSSARLTKDDVLASFQQCSAILSNMDPGYSIWAVIEKWCWVVESYVRCSVTAPPSEWRYNNTLDYLKQFATTSYPYLGCLSKKRRNELTKLYNDPEINVVMQKTEEIEFPVGIFRDEMLYLSGEDHLMQYDLELRTVGQVVNAKRRGRPSKVDKRSPVDNFYNLTPQSAQFQKLLESNMSSAFSIAFAESELIPDDLGFSPAMYMALIDMIQDKPELWQSNHPQKDNLQAQEQLFEDFGKQLIIKFRDTADISVLEKLTGPYVHLVWERLLEKFKEEDSLETVSKWKYYQVGSAGLSARLAIASPSGSSQSEDSRMAASSPSTAFIGMPTTINGNKSIQTVLDNLIAARSKKEDHAASTTSVLQAPNYSELKQMLEKNNILKVDNENGPPLKRVKQEIESPPGSSRMIVYNDTRKTTNAPISTWVPPREDLTAKVKDETVQSVPQRKAQATAVIKSGFPLEKHLKKQAVPSMIPVTSSSIPQRNGILGLNSMILPPSAIQQALLKKMDVPTTTPSMSSTSSSQAQSSMNGVINGNNTEVEDKWTLLGRMIAMMAREIETRDPMSACELTRDLQQVIFQYNMKTLRPKENNSSSSSQ,not soluble
7,MFRRLGEKTTLYRAESPSQNSLASHHNSEVSLPSVDYSQEDRHSCNTLIGDEWSQNGDVIIQPLQKPSNTPTTQYERIITRREIANTESDLCKKLSLIVDLVSDFANDANRLYEGADELLKELRTKIRVYIYFLDVEMADVEKLLRFNVDRSTICDERIDWLLHFTKCHKEMRRVLNELSEEVCEDLESCLEMRAKGVIGKKPSSIILSTLSGMRNGMMTASKLLGCLPRQRA,not soluble
8,MFRRPDDDDDDYSGRKVIKPKPIAEKYAKKLGSEFSTGKTFVTGSDKSQKDFYGSQQVRNDVMKSSDSGGAPLTEDEKNKLSAKILKAEMKGDTDLVKKLKRKLESGISGDDEPPKSKSKEVTMMRRDREGNILPASSRRSDSDRHGEGSSRMRREYEKSQDLDSMVREEKTGTAGDQLRLFERSLIKSSKIRRHDDESVDDIAEMQKGKKKSDEKDKKRKEKESIKEHKRIERSFDDCSRCIDSSRLKKHNIIAVGINTYLAVVEWDGLDDEHLIIVPTQHCSSTIQLDENVWDEMRLWRKGLVAVWKSQNRDCIFFEMSRHVDSNPHVFIECVPVEQEIGDMASIYFKKAINECEGEYMDNKKLIETKDLRRQIPKGFSYFAVDFGLSNGFAHVIESHDHFPSTFATEIIAGMLDLPPKKWRKRETDEMSKQKSRAENFKKLWEPVDWTKRLKNDSTK,soluble
9,MFSLLRKSLKSPAPKKVVPSQRTVSVAGRQVPITVRENPRATRITLRIEPGGRALKLTIPMGLHHRQVDDFLERHQGWLEGKLLKFSPDDGLRPGATIDIRGISHRIEHTGSLRGLTHIAKDADGVAVLKVSGAPEHLRRRIATFLKKEAKADLERLVAIHGRAAGRPVRSISMKDTRSRWGSCSHDGNLSFSWRIVMAPDRVIDYLAAHEVAHLSEMNHGPKFWALCEKLCPHTSEAKDWLKRHGSKLHAIDFDLEHHHHHH,not soluble
10,MFSYSSSDWQRRFDEPEKPSRIIAHHDERGPFAKDRARVLHSAALRRLADKTQVVGPRDGDNPRTRLTHSLEVAQIARGIGTGLGLDADLCEMAGLTHDIGHPPYGHNGEKALAEIAQDCGGFEGNAQTLRILSKLEPKIVDDHDQSYGLNLTRAALDAACKYPRTKTNPDGSVNKKYGCYDEDAHILQWVRQGHEDTSACVEAQAMDFSDDIAYSVHDVEDGIVSGRVHLGVLWDFVELAELAEKGARAFGGTPEALVDAADHLRELPIISAAADFDGSLRGYVDLKAMTSQLVGRYVGAVIEASRAANPTGVFGRSTGQVVVPDQVLAEVTLLKTIAVLYVMDDPTHRQRQDRQRERIYRVYDYLVAGGRGALDPMFRLWWEQAESEAQRQRVIIDNISSMTESRLERVAKQSAELSSFMG,not soluble
11,MFTIRKATSDDCKLINELANQVFPATYKEILSTEQLDYMMEWMYAPENIRKQMEEEGHVYFIAYQGDEPCGYVSVQPQDADVFHLQKIYVLPGFQGAHLGSKLFDHAVQYIKEIHPSPCLMELNVNRNNKALHFYEHKGMKKLREGDFPIGNGYYMNDYIMGLEL,not soluble
12,MFVDKNGVNMEKKLVKQQLLTGERALFASKDLRIEDSIFDDGESPLKESSNIELVNSSFKWKYPLWYCNNVNVKDCYFFEMGRAGVWYTNDINVEDTIIEAPKNFRRCNRLGLKNVEFVNAEETLWSCDNVTMTNVVAKGNYFAMNSNDMKIDGLKLVGNYPFDGSKNLEIRNSRLMSKDAFWNAENITVYDSYISGEYLGWNSKNLTFINCTIESLQGLCYIDNLVMKNCKLINTTLAFEYSTVDADITSRVDSVLNPTSGTITADSIDKLIIEKDKVDPSLTKIVCRN,not soluble
